Results: patent publication US20230295312A1 (AKESO BIOPHARMA, published 2023)

T1: human IL4RA-hFc (human, UniProt P24394 26-232)
T1 construct: mature; Coating antigen in ELISA
T1 sequence (looked up): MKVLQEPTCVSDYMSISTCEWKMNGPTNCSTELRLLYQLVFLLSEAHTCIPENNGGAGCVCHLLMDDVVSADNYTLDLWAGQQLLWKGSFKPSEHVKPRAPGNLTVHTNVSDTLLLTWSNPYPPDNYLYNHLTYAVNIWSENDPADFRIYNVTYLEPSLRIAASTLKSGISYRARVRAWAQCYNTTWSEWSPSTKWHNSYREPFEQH


Legend:
human IL4RA-hFc [1] = target: T1, human IL4RA-hFc; experiment: competitive ELISA vs IL4-N-His; Ab 3 ug/mL
Description: (§1) The ELISA plates were coated with human IL4RA-hFc and blocked before the antibodies were added. […] After the plates were washed, mouse anti-His, HRP (purchased from CoWin Biosciences, Cat No. CW0285A) was added for incubation. The plates were subjected to another wash. Chromogenic reaction was started by adding TMB (Neogen, 308177) and was then terminated. At the end of the reaction, the OD value at 450 nm wavelength was measured by a plate reader, and was analyzed and processed by SoftMax Pro 6.2.1.
(§2) By 4-parameter logistic regression of absorbance vs. antibody concentration, the blocking EC₅₀ of the antibodies was calculated.

human IL4RA-hFc [2] = target: T1, human IL4RA-hFc; experiment: competitive ELISA; blocks IL4-N-His binding to coated IL4RA-hFc
human IL4RA-hFc [3] = target: T1, human IL4RA-hFc; experiment: indirect ELISA, antigen coated 1 ug/mL
Description: Procedures: The ELISA plates were coated with human IL4RA-hFc or human IL4RA-mFc and were incubated, and target antibodies were added after blocking. […] The plates were incubated and washed before TMB (Neogen, 308177) was added for chromogenic reaction. At the end of the reaction, the absorbance at 450 nm was measured by a plate reader. The data were analyzed by SoftMax Pro 6.2.1.

human IL4RA-hFc [4] = target: T1, human IL4RA-hFc; experiment: competitive ELISA; blocks IL4-N-His (0.15 ug/ml) binding to coated IL4RA-hFc (2 ug/mL)
Description: as §1, with “CW0285M)” for “CW0285A)”
as §2

| OD450 (human IL4RA-hFc [1]) | EC50 (human IL4RA-hFc [2]) [nM] | EC50 (human IL4RA-hFc [3]) [nM] | EC50 (human IL4RA-hFc [4]) [nM] | Binder |
| --- | --- | --- | --- | --- |
| 0.053 | 3 | 0.084 |  | 13E5 (antibody, V domains shown, Murine hybridoma antibody purified on protein A; also called murine antibody 13E5; antibody secreted by hybridoma LT008 (IL4RA-13E5)) VH: EVQLQQSGPELVKPGASVKISCKTSGYTFTEYTIHWVKQNHGKSLEWIGGINPNNGGTVYNQNFKGKATLTVDKSSSTAYMELRSLTSEDSAVYYCARVRRGMDYWGQGTSVTVSS VL: DIVMTQSHKFMSTSVGDRVSITCKASQDVTTAVAWYQQKPGQSPKLLIYSASYRYTGVPDRFTGSGSGTDFTFTISSVQAEDLAVYYCQQHYSAPWTFGGGTNLEIK |
|  |  | 0.068 | 2.71 | 18H7 (antibody, V domains shown, Murine hybridoma antibody purified on protein A; also called murine antibody 18H7; antibody secreted by hybridoma LT009 (IL4RA-18H7)) VH: DVKLVESGGDLVNLGGSLKLSCAASGFTFSSSYMSWVRQTPERRLELVAAINSNGGKTYYPDTVKGRFTISRDNAKNTLYLQMSGLKTEDTALYYCTRQRGNYVGAMDYWGQGTSVTVSS VL: DIVMTQSHKFMSTSVGDRVSITCKASQDVSTAVVWYQQKPGQSPTLLIYSASYRYTGVPDRFTGSGSGTDFTFTISSVQAEDLAVYYCHQYYGSPPTFGGGTKLEIK |
